Test results from PMC3684423 (Structure (London, England : 1993), 2012).
Where no end group is shown, it is not given here. [ ]: non-standard residue; d: D form. pT = C[C@@H](OP(=O)(O)O)[C@H](N)C(=O)O

How the values were obtained:
[1] = molecular target: T1, N-terminal Smac/DIABLO(1–15) peptide; assay: ITC
T1 sequence (Q9NR28 22-36, species assumed, looked up): LCVPVVANFKKRCFS

Survivin 1-142 = Survivin 1-142 (UniProt O15392); assay: peptide-bead pull-down, Coomassie stain
Survivin L64A mutant = Survivin L64A mutant (human, UniProt O15392 1-142, L64A); assay: ITC
Sequence of Survivin L64A mutant (O15392 whole entry L64A): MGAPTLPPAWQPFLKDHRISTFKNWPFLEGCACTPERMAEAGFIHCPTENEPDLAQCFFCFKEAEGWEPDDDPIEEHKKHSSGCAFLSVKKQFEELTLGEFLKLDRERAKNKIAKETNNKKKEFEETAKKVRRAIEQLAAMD

Survivin H80A mutant = Survivin H80A mutant (human, UniProt O15392 1-142, H80A); assay: ITC
Sequence of Survivin H80A mutant (O15392 whole entry H80A): as the sequence (O15392 whole entry L64A) above, with A64L, H80A counted along it

Survivin E63A mutant = Survivin E63A mutant (human, UniProt O15392 1-142, E63A); assay: ITC
Sequence of Survivin E63A mutant (O15392 whole entry E63A): as the sequence (O15392 whole entry L64A) above, with E63A, A64L counted along it

Survivin W67A mutant = Survivin W67A mutant (human, UniProt O15392 1-142, W67A); assay: ITC
Sequence of Survivin W67A mutant (O15392 whole entry W67A): as the sequence (O15392 whole entry L64A) above, with A64L, W67A counted along it

Sequence of human Survivin (wild type) (O15392 whole entry): as the sequence (O15392 whole entry L64A) above, with A64L counted along it

Survivin(K62Y/H80W) double mutant (from UniProt O15392 1-142) (natural protein)
Kd [1]: 19.8 µM | dH [1]: -4.44 kcal/mol

histone H3 (from UniProt P68431) H3T3ph peptide beads
binding against the reference (Survivin 1-142; reference: unmodified H3 peptide beads, sites T3): same

histone H3 (from UniProt P68431) S10ph H3 peptide beads (T3 state not stated)
binding against the reference (Survivin 1-142; reference: H3 peptide beads without S10ph, sites S10): same

human Survivin (wild type) (from UniProt O15392 1-142) (natural protein)
Kd [1]: 121 µM | dH [1]: -3.48 kcal/mol

AR[pT]KQTARKSTGGKA (peptide, UniProt P68431 2-16, looked up) [H3(1–15)T3ph peptide]
Kd (Survivin L64A mutant): > 200 µM | Kd (Survivin H80A mutant): > 200 µM | Kd (Survivin E63A mutant): > 200 µM | Kd (Survivin W67A mutant): > 200 µM
